Laboratory results taken from the Human Domainome abundance scans (Beltran et al. 2025).
± gives the uncertainty stated by the source.

B1: POU domain, class 3, transcription factor 1, residues 247 to 324; numbered along this chain, Q03052 (parent)
chain: EDAPSSDDLEQFAKQFKQRRIKLGFTQADVGLALGTLYGNVFSQTTICRFEALQLSFKNMCKLKPLLNKWLEETDSSS

Variants of: B1
Assay: abundance fitness (aPCA) (normalised: wild type 0, dead -1); higher = more abundant; growth selection in yeast, the domain comes from the species named
Conditions: Homo sapiens

EDAPSSDDLEQFAKQFKQRRIKLTFTQADVGLALGTLYGNVFSQTTICRFEALQLSFKNMCKLKPLLNKWLEETDSSS [G24T] and EDAPSSDDLEQFAKQFKQRRIKLWFTQADVGLALGTLYGNVFSQTTICRFEALQLSFKNMCKLKPLLNKWLEETDSSS [G24W] are within error of each other in abundance fitness: -0.805 ± 0.2 for the first, -0.806 ± 0.19 for the second.

EDAPSSDDLEQFAKQFKQRRIKLPFTQADVGLALGTLYGNVFSQTTICRFEALQLSFKNMCKLKPLLNKWLEETDSSS [G24P] and EDAPSSDDLEQFAKQFKQRRIKLLFTQADVGLALGTLYGNVFSQTTICRFEALQLSFKNMCKLKPLLNKWLEETDSSS [G24L] are within error of each other in abundance fitness: -0.73 ± 0.21 for the first, -0.726 ± 0.12 for the second.

EDAPSSDDLEQFAKQFKQRRIKLSFTQADVGLALGTLYGNVFSQTTICRFEALQLSFKNMCKLKPLLNKWLEETDSSS [G24S] and EDAPSSDDLEQFAKQFKQRRIKLKFTQADVGLALGTLYGNVFSQTTICRFEALQLSFKNMCKLKPLLNKWLEETDSSS [G24K] are within error of each other in abundance fitness: -0.454 ± 0.1 for the first, -0.423 ± 0.15 for the second.

EDAPSSDDLEQFAKQFKQRRIKLNFTQADVGLALGTLYGNVFSQTTICRFEALQLSFKNMCKLKPLLNKWLEETDSSS [G24N] and EDAPSSDDLEQFAKQFKQRRIKLDFTQADVGLALGTLYGNVFSQTTICRFEALQLSFKNMCKLKPLLNKWLEETDSSS [G24D] are within error of each other in abundance fitness: -0.587 ± 0.22 for the first, -0.7 ± 0.39 for the second.

EDAPSSDDLEQFAKQFKQRRIKLMFTQADVGLALGTLYGNVFSQTTICRFEALQLSFKNMCKLKPLLNKWLEETDSSS [G24M] and EDAPSSDDLEQFAKQFKQRRIKLQFTQADVGLALGTLYGNVFSQTTICRFEALQLSFKNMCKLKPLLNKWLEETDSSS [G24Q] are within error of each other in abundance fitness: -0.78 ± 0.25 for the first, -0.796 ± 0.19 for the second.

EDAPSSDDLEQFAKQFKQRRIKLVFTQADVGLALGTLYGNVFSQTTICRFEALQLSFKNMCKLKPLLNKWLEETDSSS [G24V] and EDAPSSDDLEQFAKQFKQRRIKLRFTQADVGLALGTLYGNVFSQTTICRFEALQLSFKNMCKLKPLLNKWLEETDSSS [G24R] are within error of each other in abundance fitness: -1.01 ± 0.17 for the first, -0.75 ± 0.1 for the second.

EDAPSSDDLEQFAKQFKQRRIKLIFTQADVGLALGTLYGNVFSQTTICRFEALQLSFKNMCKLKPLLNKWLEETDSSS [G24I] and EDAPSSDDLEQFAKQFKQRRIKLAFTQADVGLALGTLYGNVFSQTTICRFEALQLSFKNMCKLKPLLNKWLEETDSSS [G24A] are within error of each other in abundance fitness: -1.02 ± 0.44 for the first, -0.739 ± 0.13 for the second.

Compared with EDAPSSDDLEQFAKQFKQRRIKLGFTAADVGLALGTLYGNVFSQTTICRFEALQLSFKNMCKLKPLLNKWLEETDSSS [Q27A], EDAPSSDDLEQFAKQFKQRRIKLGRTQADVGLALGTLYGNVFSQTTICRFEALQLSFKNMCKLKPLLNKWLEETDSSS [F25R] is lower in abundance fitness: -0.051 ± 0.074 for the first, -0.342 ± 0.072 for the second.

Going from EDAPSSDDLEQFAKQFKQRRIKLGGTQADVGLALGTLYGNVFSQTTICRFEALQLSFKNMCKLKPLLNKWLEETDSSS [F25G] to EDAPSSDDLEQFAKQFKQRRIKLGITQADVGLALGTLYGNVFSQTTICRFEALQLSFKNMCKLKPLLNKWLEETDSSS [F25I], the abundance fitness rises from -0.859 ± 0.15 to -0.404 ± 0.2.

EDAPSSDDLEQFAKQFKQRRIKLGSTQADVGLALGTLYGNVFSQTTICRFEALQLSFKNMCKLKPLLNKWLEETDSSS [F25S] and EDAPSSDDLEQFAKQFKQRRIKLGMTQADVGLALGTLYGNVFSQTTICRFEALQLSFKNMCKLKPLLNKWLEETDSSS [F25M] are within error of each other in abundance fitness: -0.505 ± 0.12 for the first, -0.276 ± 0.13 for the second.

EDAPSSDDLEQFAKQFKQRRIKLGDTQADVGLALGTLYGNVFSQTTICRFEALQLSFKNMCKLKPLLNKWLEETDSSS [F25D] and EDAPSSDDLEQFAKQFKQRRIKLGWTQADVGLALGTLYGNVFSQTTICRFEALQLSFKNMCKLKPLLNKWLEETDSSS [F25W] are within error of each other in abundance fitness: -0.811 ± 0.45 for the first, -0.536 ± 0.14 for the second.

Compared with EDAPSSDDLEQFAKQFKQRRIKLGYTQADVGLALGTLYGNVFSQTTICRFEALQLSFKNMCKLKPLLNKWLEETDSSS [F25Y], EDAPSSDDLEQFAKQFKQRRIKLGVTQADVGLALGTLYGNVFSQTTICRFEALQLSFKNMCKLKPLLNKWLEETDSSS [F25V] is lower in abundance fitness: 0.112 ± 0.14 for the first, -0.31 ± 0.086 for the second.

Going from EDAPSSDDLEQFAKQFKQRRIKLGLTQADVGLALGTLYGNVFSQTTICRFEALQLSFKNMCKLKPLLNKWLEETDSSS [F25L] to EDAPSSDDLEQFAKQFKQRRIKLGPTQADVGLALGTLYGNVFSQTTICRFEALQLSFKNMCKLKPLLNKWLEETDSSS [F25P], the abundance fitness falls from -0.12 ± 0.069 to -0.965 ± 0.25.

Going from EDAPSSDDLEQFAKQFKQRRIKLGQTQADVGLALGTLYGNVFSQTTICRFEALQLSFKNMCKLKPLLNKWLEETDSSS [F25Q] to EDAPSSDDLEQFAKQFKQRRIKLGCTQADVGLALGTLYGNVFSQTTICRFEALQLSFKNMCKLKPLLNKWLEETDSSS [F25C], the abundance fitness rises from -0.511 ± 0.14 to -0.217 ± 0.13.

First: EDAPSSDDLEQFAKQFKQRRIKLGNTQADVGLALGTLYGNVFSQTTICRFEALQLSFKNMCKLKPLLNKWLEETDSSS [F25N]
Second: EDAPSSDDLEQFAKQFKQRRIKLGKTQADVGLALGTLYGNVFSQTTICRFEALQLSFKNMCKLKPLLNKWLEETDSSS [F25K]
The abundance fitness of the first is lower: -0.531 ± 0.24 for the first, -0.095 ± 0.094 for the second.

First: EDAPSSDDLEQFAKQFKQRRIYLGFTQADVGLALGTLYGNVFSQTTICRFEALQLSFKNMCKLKPLLNKWLEETDSSS [K22Y]
Second: EDAPSSDDLEQFAKQFKQRRIVLGFTQADVGLALGTLYGNVFSQTTICRFEALQLSFKNMCKLKPLLNKWLEETDSSS [K22V]
The abundance fitness of the first is higher: 0.071 ± 0.2 for the first, -0.428 ± 0.094 for the second.

EDAPSSDDLEQFAKQFKQRRIRLGFTQADVGLALGTLYGNVFSQTTICRFEALQLSFKNMCKLKPLLNKWLEETDSSS [K22R] and EDAPSSDDLEQFAKQFKQRRINLGFTQADVGLALGTLYGNVFSQTTICRFEALQLSFKNMCKLKPLLNKWLEETDSSS [K22N] are within error of each other in abundance fitness: -0.035 ± 0.048 for the first, 0.126 ± 0.12 for the second.

EDAPSSDDLEQFAKQFKQRRIWLGFTQADVGLALGTLYGNVFSQTTICRFEALQLSFKNMCKLKPLLNKWLEETDSSS [K22W] showed an abundance fitness of -0.537 ± 0.12.
